# Measured values taken from PMC11513889.
# Substrate: NC(=O)NO
# Assay: purified protein
# Settings: 1 mM NADH, NB5R3, CYB5B, 20 mM MES pH 6.0, 37 °C
protein,measurement,value
mARC1 (Homo sapiens) (protein) GAAGSSALARFVLLAQSRPGWLGVAALGLTAVALGAVAWRRAWPTRRRRLLQQVGTVAQLWIYPVKSCKGVPVSEAECTAMGLRSGNLRDRFWLVINQEGNMVTARQEPRLVLISLTCDGDTLTLSAAYTKDLLLPIKTPTTNAVHKCRVHGLEIEGRDCGEATAQWITSFLKSQPYRLVHFEPHMRPRRPHQIADLFRPKDQIAYSDTSPFLILSEASLADLNSRLEKKVKATNFRPNIVISGCDVYAEDSWDELLIGDVELKRVMACSRCILTTVDPDTGVMSRKEPLETLKSYRQCDPSERKLYGKSPLFGQYFVLENPGTIKVGDPVYLLGQ,Km,7 mM
